Reference: PMC5698488

Target: BG505 Olio6 trimer (HIV-1 (isolate BG505))
Assay: SEC-MALS

## BG505 Olio6 trimer (complex)
  stoichiometry N: 3
